Assay results reported in PMC7846742.

Target: His6-OAZ-GSY-SPM-Ctag (human | Neisseria meningitidis serogroup B (strain MC58)) (UniProt Q9JYV5)
Test: cross-linking; NeissLock: Ca2+-induced aspartic anhydride on OAZ reacts with the docked partner; purified proteins mixed at 10 µM each or as indicated (AZI 2.5 µM each; Fig. 4b 0.5 µM each; 30 µM ODC with 10 µM OAZ-Y-SPM), 37 °C, HBS pH 7.4 with 2 mM TCEP, 10 mM CaCl2 unless varied (pH 6.5-8.5, 0.5-10 mM Ca2+, TBS, lyophilised probe); SDS-PAGE with Coomassie, intact ESI-MS, tryptic LC-MS/MS

Chain of His6-AZI-Ctag (human Antizyme Inhibitor) (O14977 whole entry): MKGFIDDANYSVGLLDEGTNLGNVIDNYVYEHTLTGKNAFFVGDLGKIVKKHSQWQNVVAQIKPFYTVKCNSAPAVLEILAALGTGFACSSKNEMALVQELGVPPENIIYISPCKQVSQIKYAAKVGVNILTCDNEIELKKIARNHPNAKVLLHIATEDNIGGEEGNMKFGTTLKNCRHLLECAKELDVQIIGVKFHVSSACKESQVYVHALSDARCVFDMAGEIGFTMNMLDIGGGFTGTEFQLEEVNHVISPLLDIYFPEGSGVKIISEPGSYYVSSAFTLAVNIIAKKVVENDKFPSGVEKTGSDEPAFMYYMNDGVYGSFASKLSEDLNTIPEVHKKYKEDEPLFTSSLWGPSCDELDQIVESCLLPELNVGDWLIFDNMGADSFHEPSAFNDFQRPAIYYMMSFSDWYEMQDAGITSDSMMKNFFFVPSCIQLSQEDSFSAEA

Q: How did the coupling yield turn out when “His6-AZI-Ctag (human Antizyme Inhibitor) (from UniProt O14977 1-448) (natural protein)” was run?
A: The coupling yield was 80%.

Q: What about the percent of AZI conjugated within 10 min of the same substance?
A: The percent of AZI conjugated within 10 min was over 50%.
